Data taken from the DeepSol protein solubility set.

Test: soluble on expression in E. coli; label from the status in PepcDB or PDB records

Sequence: MAVKMKYWTDEVGGERGSLKVELKPFGYRIIPLTQWKTLIAMDDVEVKKGEPEIIEVRPFTIPGGTMVGPLHIMRHALGTVLDVVECGIPTRVEDEKCIQRVVFLPVDDGVVREGDIVGVLKVFFIKTGLISRLFNLKPTKVELREEIVEANITWRDDGNIYREKISTKVFGYTRTHVGVWEPLVADEDVGVRAGDVLRVKIRNVELPPNTVVVPLSISRNPYGVVVDVVQLGKPRRVEEPKNIEQAVFLAVDDGEIKRGDLLGVINVYYVGLKKLEPLIATKEPQDFTLVYRKEEKIIRKKVHLPPFGYHRSPVARWEVVVAAEDKELTKNKPVRVKIKKIKIPANTIVYPMEIMRHSDGVLIDLVSDLPWRVEEGGKVDEAIFLPLFDGKIEKDDLLGVINLYQVELSPVEKIREMYNRFVKLSEEELMKYVEGLQ
- soluble on expression in E. coli: soluble

Sequence: GPGSMFFYQRRLASGLPVRFLSLRAWRSSPENFRKTSAFLKALKAKTPAAGVSAEGFGARPVVVITGGERGIGKEVVHQLLREGVDVILCCPFEAEALRTIARLKARVSNSRVHFVKLDLNDEESVRECAAEVLGMTPRIDVLINNSGLVSPLSHKLNKRGYEVVLSINFLGHVLFTELLLERVKASGPSRIVNVASLMHLDACVEGPCKTALDVMAANCDPTSPHHTRNYSLSKLLLVCYTRDLARHLRGTDTAVATLHPGVVITDIYAFAVIFMRVFFRTVFKFPGEGAEVVLYCALADNIRSGSFYADCAEYNSLLSPLAVDDAHNERLRRVLLRYFALDGSKPTGKSLADVVQSTP
- soluble on expression in E. coli: not soluble

Sequence: MKRKRIDIITLGCSKNLVDSEQLMRQLEEAGYSVTHDTENPEGEIAVINTCGFIGDAKEESINMILEFAERKEEGDLKKLFVMGCLSERYLQELAIEIPQVDKFYGKFNWKELLQDLGKTYHEELYIERTLTTPKHYAYLKISEGCDRKCSYCAIPIITGRHISKSMEEILDEVRYLVSQGVKEFQVIAQELTYYGVDLYKKQMLPELIERISEIPGVEWIRLHYAYPAHFPTDLFRVMRERDNVCKYMDIALQHISDNMLKLMRRQVSKEDTYKLIEQFRKEVPGIHLRTTLMVGHPGETEEDFEELKEFVRKARFDRMGAFAYSEEEGTYAAQQYEDSIPQEVKQARLDELMDIQQGISAELSAAKIGQQMKVIIDRIEGDYYIGRTEFDSPEVDPEVLISVSREELEVGQFYQVEVTDADDFDLYAKILNKYELEHHHHHH
- soluble on expression in E. coli: soluble

Sequence: MYVTVTEAAYKKIMDTIPSEAKYIKLFYDNEGCGCVMSGIIDLVAVAEKDERDVDIESSTMNFIADRTKLVFMDDKLTVDWHEGGGTFQLKSPSQFYNPNMKLHVRV
- soluble on expression in E. coli: not soluble

Sequence: MRALPICLVALMLSGCSMLSRSPVEPVQSTAPQPKAEPAKPKAPRATPVRIYTNAEELVGKPFRDLGEVSGDSCQASNQDSPPSIPTARKRMQINASKMKANAVLLHSCEVTSGTPGCYRQAVCIGSALNITAKLEHHHHHH
- soluble on expression in E. coli: not soluble

Sequence: GAMGSSLDNPTPFPNLGPSENPLKRLLVPGEEWEFEVTAFYRGRQVFQQTISCPEGLRLVGSEVGDRTLPGWPVTLPDPGMSLTDRGVMSYVRHVLSCLGGGLALWRAGQWLWAQRLGHCHTYWAVSEELLPNSGHGPDGEVPKDKEGGVFDLGPFIVDLITFTEGSGRSPRYALWFCVGESWPQDQPWTKRLVMVKVVPTCLRALVEMARVGGASSLENTVDLHISNSHPLSLTSDQYKAYLQDLVEGMDFQGPGES
- soluble on expression in E. coli: soluble

Sequence: MSLKHGRTRLIGLIIADITNPYSVNVMSGIEAACREKGFTLLVCNTNNELDQELHYLDLLRSYQVEGIVVNAVGMREDGLNRLQQSALPMVLIDRKIPDFACDVVGLDNAQAATTATEHLVEKGFEAILFLSEPLGSVNTRRERLSAFRATLARHHGVVAENAEVQLNDGAMLDNVLRQFHARHRGMRKAVISANGALTLQVARALKRVGLIWGSDIGLLGFDELEWAELAGVGITTLKQPTWQIGYAAVEQVIRRIAGTNDPIRERVFSGELIVRGSTSREGHHHHHH
- soluble on expression in E. coli: soluble

Sequence: MNIELRHLRYFVAVAEELHFGRAAARLNISQPPLSQQIQALEQQIGARLLARTNRSVLLTAAGKQFLADSRQILSMVDDAAARAERLHQGEAGELRIGFTSSAPFIRAVSDTLSLFRRDYPDVHLQTREMNTREQIAPLIEGTLDMGLLRNTALPESLEHAVIVHEPLMAMIPHDHPLANNPNVTLAELAKEPFVFFDPHVGTGLYDDILGLMRRYHLTPVITQEVGEAMTIIGLVSAGLGVSILPASFKRVQLNEMRWVPIAEEDAVSEMWLVWPKHHEQSPAARNFRIHLLNALR
- soluble on expression in E. coli: not soluble

Sequence: GSHMQAEILLTLKLQQKLFADPRRISLLKHIALSGSISQGAKDAGISYKSAWDAINEMNQLSEHILVERATGGKGGGGAVLTRYGQRLIQLYDLLAQIQQKAFDVLSDDDALPLNSLLAAISRFSLQTSARNQWFGTITARDHDDVQQHVDVLLADGKTRLKVAITAQSGARLGLDEGKEVLILLKAPWVGITQDEAVAQNADNQLPGIISHIERGAEQCEVLMALPDGQTLCATVPVNEATSLQQGQNVTAYFNADSVIIATLC
- soluble on expression in E. coli: soluble

Sequence: MGSDKIHHHHHHMESVGDVLKRQPSRFYYQDLVQKIMKDPDVAAFIQQESLTPKELNRSISKFNQYITERDKFLRGDTDYIAKGYKPILVKNHGYADVSYEETPELIAAEKEAAIKNRLKLINLPASLKKASLAQVDLDDLGRLPVFEKLLAFVEQYPAIRKGLYLYGDFGVGKSFMVAALAHDLSEKRGVSSTLLHYPSFVIDVKNAISDGNVKTLVDEIKLSEVLILDDIGAEQSTVWVRDEILQVILQYRMQENLPTFFTSNFNFEDLEKHFAKVKHGNDETWEARRVMERIRYLAEETRLEGVNRR
- soluble on expression in E. coli: not soluble

Sequence: MSLTHEEAVAIHKEKMEALEMQMKLILVLDLDQTVLHTTYGTSSLEGTVKFVIDRCRYCVKLRPNLDYMLRRISKLYEIHVYTMGTRAYAERIVEIIDPSGKYFDDRIITRDENQGVLVKRLSRLFPHDHRNIVILDDRPDVWDYCENLVLIRPFWYFNRVDINDPLRLKRKIEKEAGENKALEEGHHHHHH
- soluble on expression in E. coli: not soluble

Sequence: MTMRTYKNPYPDSEDAVEIRFDHCREDIAKAAQEYWREMTEAELDDLQEEIMRALAVSEWQNIWLTSAAFITVLAYHFHD
- soluble on expression in E. coli: not soluble

Sequence: MQLRYAFRVYPDAGQRLALARAFGCARVVFNDVVRAREDARKAGRPFQTAAGLSRKLITEAKRTAERSWLGEVSAVVLQQSLRDAETAYRNFFASLKGTRKGPRVGPPRYKSRKDARQSIRFTANARWSITDSGRLNLPKIGAVKVKWSRTLPTIPTSVTVIKDAAGRYFASFVVDTDPAADRVRMPDADRTVGIDLGLTHFAVLSDGTKIGSPRFLRRAEKKLKKAQQELSRKQMGSKNRDRARLKVARAHAKVADARREFHHQLSTRLISENQGIAVEDLSVAGLARTRLAKSVHDAGWSSFVGMLKYKAERYGRTLVVIGRFEPTSQTCSTCGVKDGPKPLQVREWTCTACGTVHDRDHNAAINVKQAAGLAASACGAPVRPGAIPAQREETGSHGLPTEPRAALEHHHHHH
- soluble on expression in E. coli: not soluble

Sequence: MGKKMVVALGGNAILSNDASAHAQQQALVQTSAYLVHLIKQGHRLIVSHGNGPQVGNLLLQQQAADSEKNPAMPLDTCVAMTQGSIGYWLSNALNQELNKAGIKKQVATVLTQVVVDPADEAFKNPTKPIGPFLTEAEAKEAMQAGAIFKEDAGRGWRKVVPSPKPIDIHEAETINTLIKNDIITISCGGGGIPVVGQELKGVEAVIDKDFASEKLAELVDADALVILTGVDYVCINYGKPDEKQLTNVTVAELEEYKQAGHFAPGSMLPKIEAAIQFVESQPNKQAIITSLENLGSMSGDEIVGTVVTK
- soluble on expression in E. coli: soluble

Sequence: RKPTALIILDGFGLREETYGNAVAQAKKPNFDGYWNKFPHTTLTACGEAVGLPEGQMGNSEVGHLNIGAGRIVYQSLTRVNVAIREGEFDKNETFQSAIKSVKEKGTALHLFGLLSDGGVHSHMNHMFALLRLAAKEGVEKVYIHAFLDGRDVGPKTAQSYIDATNEVIKETGVGQFATISGRYYSMDRDKRWDRVEKCYRAMVNGEGPTYKSAEECVEDSYANGIYDEFVLPSVIVNEDNTPVATINDDDAVIFYNFRPDRAIQIARVFTNGDFREFDRGEKVPHIPEFVCMTHFSETVDGYVAFKPMNLDNTLGEVVAQAGLKQLRIAETEKYPHVTFFFSGGREAEFPGEERILINSPKVATYDLKPEMSIYEVTDALVNEIENDKHDVIILNFANCDMVGHSGMMEPTIKAVEATDECLGKVVEAILAKDGVALITADHGNADEELTSEGEPMTAHTTNPVPFIVTKNDVELREDGILGDIAPTMLTLLGVEQPKEMTGKTIIK
- soluble on expression in E. coli: soluble

Sequence: MTNVLIEDLKWRGLIYQQTDEQGIEDLLNKEQVTLYCGADPTADSLHIGHLLPFLTLRRFQEHGHRPIVLIGGGTGMIGDPSGKSEERVLQTEEQVDKNIEGISKQMHNIFEFGTDHGAVLVNNRDWLGQISLISFLRDYGKHVGVNYMLGKDSIQSRLEHGISYTEFTYTILQAIDFGHLNRELNCKIQVGGSDQWGNITSGIELMRRMYGQTDAYGLTIPLVTKSDGKKFGKSESGAVWLDAEKTSPYEFYQFWINQSDEDVIKFLKYFTFLGKEEIDRLEQSKNEAPHLREAQKTLAEEVTKFIHGEDALNDAIRISQALFSGDLKSLSAKELKDGFKDVPQVTLSNDTTNIVEVLIETGISPSKRQAREDVNNGAIYINGERQQDVNYALAPEDKIDGEFTIIRRGKKKYFMVNYQ
- soluble on expression in E. coli: soluble

Sequence: MSLKYGRDTIVEVDLNAVKHNVKEFKKRVNDENIAMMAAVKANGYGHGAVEVAKAAIEAGINQLAIAFVDEAIELREAGINVPILILGYTSVAAAEEAIQYDVMMTVYRSEDLQGINEIANRLQKKAQIQVKIDTGMSRIGLQEEEVKPFLEELKRMEYVEVVGMFTHYSTADEIDKSYTNMQTSLFEKAVNTAKELGIHIPYIHSSNSAGSMEPSNTFQNMVRVGIGIYGMYPSKEVNHSVVSLQPALSLKSKVAHIKHAKKNRGVSYGNTYVTTGEEWIATVPIGYADGYNRQLSNKGHALINGVRVPVIGRVCMDQLMLDVSKAMPVQVGDEVVFYGKQGEENIAVEEIADMLGTINYEVTCMLDRRIPRVYKENNETTAVVNILRKN
- soluble on expression in E. coli: not soluble

Sequence: MSFQVSVAVNDGPFQKKSVTPNTTIGDLNNDAILIWKDTAIVYDISDESKNFGPTVTLEQLGVTQISMVYIYTTAFPCPSGDLRSIVPAQVRLISQFASAASSIFNGQSSSSAQSAQRTRRVEQDDEGEKSMFSRKLLDSPATFKALSENMFFRLKNEPHKLGYGLPELVERFLAKKDMTYKEFEQMFRSYVEEEVHKEEIIKNNPNSAEAKMFLEAKRNKELIDEQYLHSMTHHPEDMIAVTMLYINLTINGVPVKAFIDSGAQKSIMSMACAERCGLNGLIDRRFQSMARGVGGTEKIEGKIHLCDVKVEDAHFSCPFEVMARREMDLLIGLNVLRKHGCCINLKTSRLEFGNGTTTPFLQSNEIDSHLKEIMALPEEEMQFEDGST
- soluble on expression in E. coli: not soluble

Sequence: MLDPFSEKAKELLKEFGSMNEFLQAIPSLVDIEEVMNRLKFAKESEISEDILNIEDIRDLASFYAQIGALAYSPYGLELELVKKANLRIYTERIRRRRKIRSDEIGIEVKIAVEFPENDIKTLEKVYGGLPEYIVSLREFLDLVPDEKLSSYYVYDGNVYLRKDDLLKVWSKAFERNVEKAVNIIYEIRDELPEFYRRLAGEIRSFAEKEFSDKFREVQAGELKHHLFPPCVKNALRGVPQGMRNYAITVLLTSFLSYARICPNPPRRNVKIRDCIKDMRVITEEILPIIIEAGNRCSPPLFEDQPNEIKNIWYHLGFGYTANPTLEDSGNSTWYFPPNCDKIKANAPQLCTPDKHCRYIRNPLTYYLRRLYLEEKRRAKHADEGSDKGGKERILQLEHHHHHH
- soluble on expression in E. coli: not soluble

Sequence: MGFMIEHWDFSTPMATQETTTAEHIQPNHWYHCERLHPDIRSWLEDNHVPRATVDHLLADESRPSFHPLDDDNFMLILRGINMNENASPEDMLSIRILYFQGALISTRKIPSRAIMEIRQALAEHKGPKSLASLLNQIIEGLNGKIDLYLDTIEETLNEFDVNDESTYNHIAAQKALISIKRFIRPQQYAIRDLIESESELVTSRPHQYRFAHNNITRINETIEFYLGEVALFQDEIKHNRDEKTNKNSYLFTLVATIFLPTSFLTGLL
- soluble on expression in E. coli: not soluble
